Measured values published in paper doi:10.1101/2024.11.17.623997.
Read-outs that look alike come from different tables or passages of the source.

Experiments:
[1] = target: AcrVIB1-His (R. anatipestifer); assay: MST
[2] = target: AcrVIB1 (R. anatipestifer); assay: other fluorescence titration
[3] = target: AcrVIB1 (R. anatipestifer); assay: SEC-MALS
[4] = target: T1, PbuCas13b (UniProt E6K398 1-1127); assay: MST
T1 sequence: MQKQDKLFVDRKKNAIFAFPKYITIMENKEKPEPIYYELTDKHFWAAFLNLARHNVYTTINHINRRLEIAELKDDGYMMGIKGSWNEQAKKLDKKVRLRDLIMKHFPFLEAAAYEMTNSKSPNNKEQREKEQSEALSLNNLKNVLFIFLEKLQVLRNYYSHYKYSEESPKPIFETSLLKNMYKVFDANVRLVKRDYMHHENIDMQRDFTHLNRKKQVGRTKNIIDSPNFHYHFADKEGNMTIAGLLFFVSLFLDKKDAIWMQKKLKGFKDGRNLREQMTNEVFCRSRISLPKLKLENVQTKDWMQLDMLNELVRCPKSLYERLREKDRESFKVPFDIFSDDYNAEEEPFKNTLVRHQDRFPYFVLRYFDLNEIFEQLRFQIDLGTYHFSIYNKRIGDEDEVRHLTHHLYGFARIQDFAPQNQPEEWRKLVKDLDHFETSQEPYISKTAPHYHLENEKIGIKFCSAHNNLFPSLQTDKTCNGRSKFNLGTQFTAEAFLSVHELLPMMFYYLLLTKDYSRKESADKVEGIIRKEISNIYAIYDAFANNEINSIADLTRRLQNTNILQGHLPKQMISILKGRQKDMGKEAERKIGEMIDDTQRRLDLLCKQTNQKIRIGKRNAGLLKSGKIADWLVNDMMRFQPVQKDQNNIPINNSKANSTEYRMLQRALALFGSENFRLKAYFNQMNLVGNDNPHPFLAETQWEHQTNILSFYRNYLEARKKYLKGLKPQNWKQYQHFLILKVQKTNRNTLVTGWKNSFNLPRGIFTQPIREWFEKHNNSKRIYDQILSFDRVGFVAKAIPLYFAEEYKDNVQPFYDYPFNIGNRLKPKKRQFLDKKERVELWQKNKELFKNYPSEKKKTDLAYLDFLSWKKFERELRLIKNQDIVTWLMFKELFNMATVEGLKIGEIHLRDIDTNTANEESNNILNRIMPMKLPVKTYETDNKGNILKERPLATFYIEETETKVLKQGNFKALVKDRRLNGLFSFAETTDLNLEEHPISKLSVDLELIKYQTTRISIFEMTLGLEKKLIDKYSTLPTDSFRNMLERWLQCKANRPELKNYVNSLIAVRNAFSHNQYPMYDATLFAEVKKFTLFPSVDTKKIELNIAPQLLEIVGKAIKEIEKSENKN

[5] = target: T1, PbuCas13b; assay: MST; remark: listed apart in the source

PbuCas13b (enzyme)
Kd [1]: 44 nM

PbuCas13b Helical-2 domain (residues 579 - 747) (domain or fragment)
Kd [2]: 251 nM | stoichiometry N [3]: 1

B1: crRNA-1 processed (KW-RNA-002) (structured_RNA)
RNA: CGUCGCCGUCCAGCUCGACCAGGAUGGGAAGUUGCAUCUGCCUUCUUUUUGAAAGGUAAAAACAAC
Kd [4]: ~1000 nM

B2: crRNA-1 processed / target RNA 1 (KW-RNA-005) (mixed)
RNA 1: CGUCGCCGUCCAGCUCGACCAGGAUGGGAAGUUGCAUCUGCCUUCUUUUUGAAAGGUAAAAACAAC
RNA 2: ACUGGCGUUGUUCCCAUCCUGGUCGAGCUGGACGGCGACGUAAACGGCCA
Kd [5]: 85 nM
